Positions count from the first letter of the chain named.
Experiments:
Assay type in all cases: cell-based
[1] = target: T1, ERα-EF (residues 297-595, the E and F domains of Estrogen Receptor α) (Homo sapiens, UniProt P03372, G400V); assay: Quantitative β-galactosidase yeast two-hybrid assay, ERα-EF bait; settings: for binding to different ERα-EF/agonist complexes: agonists E2, estriol, diethylstilbestrol, genistein, FIGS. 15A-D
T1 construct: expressed in transfected cells; host or cells: Saccharomyces cerevisiae RFY206 (mated with EGY48 for the survival screens)
T1 sequence (P03372 with tags, fused parts or gaps G400V): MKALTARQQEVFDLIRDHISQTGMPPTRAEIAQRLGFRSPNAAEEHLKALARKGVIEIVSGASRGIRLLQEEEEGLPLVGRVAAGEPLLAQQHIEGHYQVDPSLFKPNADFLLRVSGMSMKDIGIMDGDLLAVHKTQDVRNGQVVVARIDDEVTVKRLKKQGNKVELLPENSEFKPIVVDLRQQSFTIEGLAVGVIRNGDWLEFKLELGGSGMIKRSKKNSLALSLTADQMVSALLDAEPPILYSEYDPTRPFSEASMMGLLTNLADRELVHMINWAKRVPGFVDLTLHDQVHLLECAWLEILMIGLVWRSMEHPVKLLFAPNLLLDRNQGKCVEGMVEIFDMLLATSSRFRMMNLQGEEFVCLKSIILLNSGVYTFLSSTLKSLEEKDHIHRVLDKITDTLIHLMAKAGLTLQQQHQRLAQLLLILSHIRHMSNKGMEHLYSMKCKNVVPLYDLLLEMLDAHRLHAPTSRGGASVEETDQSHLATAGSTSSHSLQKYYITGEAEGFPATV
Procedure: (§1) Quantitative assays were performed as follows. The yeast strain RFY206 was (1) first transformed with pEGERα297-595 (or pEGERα297-554) and pSH18-34 and (2) subsequently with a derivative of the pYT45 plasmid encoding a particular monobody. Yeast cells were grown overnight at 30° C. in YC Glc-his-ura-trp media. The culture was then spun down, the media were discarded, and the cells were resuspended in YC Gal Raf-his-ura-trp media containing a ligand at a final cell density of 0.2 OD660 nm in a total volume of 175 μl in the wells of a deep 96-well plate. Ligands used were E2, ICI182,780, OHT, raloxifene, progesterone, estriol, diethylstilbestrol, and genistein. The ligand concentration was 1 μM except for genistein (10 μM). After incubating for six hours at 30° C. with shaking, 175 μl of β--galactosidase assay buffer (60 mM Na2HPO4, 40 mM NaH2PO4, 10 mM KCl, 1 mM MgSO4, 0.27% β-mercaptoethanol, 0.004% SDS, 4 mg/ml 2-nitrophenyl-β-D-[…], 50% Y-PER (Pierce)) was added to the culture, incubated at 30° C., then the reaction was stopped by adding 150 μl of 1M Na2CO3. After centrifugation, OD420 was measured and the β-galactosidase activity was calculated.
The binding specificity of the monobodies toward different ERα-EF/ligand complexes was examined using quantitative β-galactosidase assays. It has been shown that the β-galactosidase activity correlates well with the interaction affinity between the bait and prey of the yeast two-hybrid system (Estojak et al., 1995), allowing an in vivo discrimination of interaction affinity. To minimize the effect of different ligands on the expression level and degradation of the LexA-ER fusion protein, β-galactosidase activity was determined after a short incubation period (6 hours) following the addition of a ligand and the initiation of monobody production. It was confirmed that yeast samples prepared in the presence and absence of ligands contained similar levels of ERα-EF protein (FIG. 14H).

[2] = target: T2, ERα-E (residues 297-554, the E domain of Estrogen Receptor α) (Homo sapiens, UniProt P03372, G400V); assay: Quantitative β-galactosidase yeast two-hybrid assay, ERα-E bait (F domain deleted) compared with ERα-EF; settings: for effect of deletion of the F domain on interaction with the ERα fragments: in the presence of E2, ERα-E vs ERα-EF, FIGS. 16A-C
T2 construct: ERα-E (residues 297-554, the E domain of Estrogen Receptor α); expressed in transfected cells; host or cells: Saccharomyces cerevisiae RFY206
T2 sequence (P03372 297-554 G400V): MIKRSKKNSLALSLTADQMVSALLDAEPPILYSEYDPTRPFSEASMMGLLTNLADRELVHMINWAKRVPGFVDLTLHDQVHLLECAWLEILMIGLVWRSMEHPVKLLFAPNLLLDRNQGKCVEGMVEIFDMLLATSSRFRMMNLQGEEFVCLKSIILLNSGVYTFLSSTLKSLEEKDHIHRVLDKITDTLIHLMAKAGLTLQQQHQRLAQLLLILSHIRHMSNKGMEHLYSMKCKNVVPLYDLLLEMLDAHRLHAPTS
Procedure: as §1
The affects of the F domain (residues 551-595) on interactions of monobodies with the LBD (the E domain) of ERα was tested. The β-galactosidase activity of cells containing a LexA-ERα E domain fusion protein and a monobody-activation domain fusion protein was compared to the β-galactosidase activity of cells containing LexA-ERα-EF and the same monobody-activation domain fusion protein (FIGS. 16A-E).

[3] = target: T1, ERα-EF (residues 297-595, the E and F domains of Estrogen Receptor α); assay: Yeast two-hybrid survival assay (LEU+ growth selection) of monobody clones; settings: ligand ICI182,780, pYT45B3F7 library clones
Source text: Briefly, utilizing such a system, plasmids are constructed that encode two fusion proteins, the interaction of which is shown schematically in FIGS. 4A-B. The first fusion protein (also known as “bait”) contains the DNA-binding domain (e.g., LexA) fused to a known protein, in this case a nuclear receptor or fragment thereof which includes a functional ligand binding domain (NR-LBD). Any of the above-identified nuclear receptors (or fragments thereof which include a functional ligand binding domain) can be used as the bait protein or polypeptide. The second fusion protein (also known as “prey”) includes an activation domain (e.g., B42) fused to an unknown protein, in this case a polypeptide monobody, that is encoded by a cDNA which has been recombined into a plasmid as part of a combinatorial cDNA library. Both plasmids include a promoter which is operable in yeast cells and which has been ligated upstream of the fusion protein coding regions. […] In contrast, where interaction between the monobody of the prey and the nuclear receptor ligand binding domain of the bait occurs (FIG. 4B), a functional transcription factor is reconstituted, resulting in expression of the reporter gene which can be detected by an assay for the reporter gene product. […]

B1: Clone F2-2#11: pYT45B3F7 library monobody, E2 screen; FG loop RVMDMLL (SEQ ID No: 44) (protein)
chain: MQVSDVPRDLEVVAATPTSLLISWDAPAVTVRYYRITYGETGGNSPVQEFTVPGSKSTATISGLKPGVDYTITVYAVTGRVMDMLLSKPISINYRT
modifications: left off: large carriers
- sensitivity to the differences among agonist complexes ([1]; ERα-EF/agonist complexes): most sensitive
- β-galactosidase activity among those tested ([1]; ERα-EF/agonist complexes, FIGS. 14-16): lowest
- binding to different ERα-EF/agonist complexes [1]: different reactivity

B2: Clone 33: pYT45B3F7 library monobody, OHT screen; FG loop TWVRPNQ (SEQ ID No: 49) (protein)
chain: B1 chain with R80T, V81W, M82V, D83R, M84P, L85N, L86Q
modifications: left off: large carriers
- effect of deletion of the F domain on interaction with ERα ([2]; in the absence of a ligand): did not increase
- interactions with ERα-E and ERα-EF compared ([2]; in the presence of OHT, FIG. 16D): similar
- interaction with ERα-E/raloxifene complex relative to ERα-EF/raloxifene complex ([2]; raloxifene, FIG. 16D): significantly greater

B3: Clone 23,31,E31,3,4,5: pYT45B3F7 library monobody, E2 screen; FG loop LRLMLAG (SEQ ID No: 36), wild-type BC loop (protein)
chain: B1 chain with R80L, V81R, M82L, D83M, M84L, L85A, L86G
modifications: left off: large carriers
- binding to different ERα-EF/agonist complexes [1]: bind equally well
- effect of deletion of the F domain on interaction with the ERα fragments [2]: little effect

B4: F2-2#10 (protein)
chain: B1 chain with M82R, M84L, L86M
modifications: left off: large carriers
- Binding Specificity ICI [3]: weak+

B5: SRC-1: NR-box fragment (residues 570-780) of steroid receptor coactivator-1, natural coactivator of ER (protein)
chain: PSRLNIQPAKAESKDNKEIASILNEMIQSDNSSSDGKPLDSGLLHNNDRLSDGDSKYSQTSHKLVQLLTTTAEQQLRHADIDTSCKDVLSCTGTSNSASANSSGGSCPSSHSSLTERHKILHRLLQEGSPSDITTLSVEPDKKDSASTSVSVTGQVQGNSSIKLELDASKKKESKDHQLLRYLLDKDEKDLRSTPNLSLDDVKVKVEKKEQ
modifications: left off: large carriers
- binding to different ERα-EF/agonist complexes [1]: bind equally well
- effect of deletion of the F domain on interaction with the ERα fragments [2]: little effect
